The source of these data is patent US20180273587A1 (AILERON THERAPEUTICS, published 2018).

Assay [1] has as its target T1, MCL-1 (UniProt Q07820 172-327, limits assumed).
T1 construct: Target of the Ki columns; also called Myeloid cell leukemia 1
Briefly: Ki; method not stated; unit not printed (nM per Table 6).
T1 sequence (Q07820 172-327 limits assumed): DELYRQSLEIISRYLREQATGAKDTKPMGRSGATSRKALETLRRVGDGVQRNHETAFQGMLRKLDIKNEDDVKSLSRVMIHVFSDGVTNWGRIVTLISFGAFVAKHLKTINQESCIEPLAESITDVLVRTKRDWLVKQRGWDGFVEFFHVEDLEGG

The next assay addresses BCL-XL (UniProt Q07817 1-209). The assay is described as follows: Ki table, method not stated.
The target of assay [2] is T2, MCL-1 (UniProt Q07820 172-327, limits assumed).
T2 construct: also called Myeloid cell leukemia 1
Briefly: Ki table, method not stated.
T2 sequence (Q07820 172-327 limits assumed): as above

The next assay deals with BCL-2 (UniProt P10415 1-217, limits assumed). The assay is described as follows: Ki table, method not stated.

Positions of bridges follow the written chain, without caps; N, C: chain ends. Non-standard residues stand in square brackets, D forms with d. Bip = N[C@@H](Cc1ccc(-c2ccccc2)cc1)C(=O)O; αMeW = C[C@](N)(Cc1c[nH]c2ccccc12)C(=O)O; R8 = C=CCCCCCC[C@@](C)(N)C(=O)O; Cit = NC(=O)NCCC[C@H](N)C(=O)O; αMeL = CC(C)C[C@](C)(N)C(=O)O; S5 = C=CCCC[C@](C)(N)C(=O)O; Ac6c = NC1(C(=O)O)CCCCC1; Ac5c = NC1(C(=O)O)CCCC1; Aib = CC(C)(N)C(=O)O

Sequence of BCL-2 (P10415 1-217 limits assumed): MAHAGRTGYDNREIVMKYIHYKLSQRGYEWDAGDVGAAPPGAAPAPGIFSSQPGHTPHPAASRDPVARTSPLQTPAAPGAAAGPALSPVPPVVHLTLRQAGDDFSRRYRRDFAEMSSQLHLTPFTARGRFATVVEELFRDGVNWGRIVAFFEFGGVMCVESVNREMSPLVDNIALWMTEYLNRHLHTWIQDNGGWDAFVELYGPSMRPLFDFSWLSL
Sequence of BCL-XL (Q07817 1-209): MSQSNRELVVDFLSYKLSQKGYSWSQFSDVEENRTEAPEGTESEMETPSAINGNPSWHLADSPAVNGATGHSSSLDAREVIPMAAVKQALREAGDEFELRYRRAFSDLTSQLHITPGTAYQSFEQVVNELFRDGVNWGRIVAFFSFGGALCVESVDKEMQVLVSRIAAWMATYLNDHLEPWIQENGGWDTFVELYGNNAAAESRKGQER

B1: SEQ ID NO: 1773 (peptide)
peptide: Ac-IWIAQAL[Cit][R8]IGDAAN[S5]YYA-NH2
modifications: staple 9-16
SMILES: CC[C@H](C)[C@H](NC(C)=O)C(=O)N[C@@H](Cc1c[nH]c2ccccc12)C(=O)N[C@H](C(=O)N[C@@H](C)C(=O)N[C@@H](CCC(N)=O)C(=O)N[C@@H](C)C(=O)N[C@@H](CC(C)C)C(=O)N[C@@H](CCCNC(N)=O)C(=O)N[C@]1(C)CCCCCCC=CCCC[C@@](C)(C(=O)N[C@@H](Cc2ccc(O)cc2)C(=O)N[C@@H](Cc2ccc(O)cc2)C(=O)N[C@@H](C)C(N)=O)NC(=O)[C@H](CC(N)=O)NC(=O)[C@H](C)NC(=O)[C@H](C)NC(=O)[C@H](CC(=O)O)NC(=O)CNC(=O)[C@H]([C@@H](C)CC)NC1=O)[C@@H](C)CC
By Ki is commonly meant the dissociation constant of the complex between target and ligand, obtained from inhibition or displacement. A lower Ki goes with higher affinity. The molecule B1 yielded an inhibition constant (Ki) with MCL-1 [1] of 39.5 nM.

B2: SEQ ID NO: 1774 (peptide)
peptide: Ac-IWIAQAL[Cit][R8]IGDAVN[S5]YYA-NH2
modifications: staple 9-16
SMILES: CC[C@H](C)[C@H](NC(C)=O)C(=O)N[C@@H](Cc1c[nH]c2ccccc12)C(=O)N[C@H](C(=O)N[C@@H](C)C(=O)N[C@@H](CCC(N)=O)C(=O)N[C@@H](C)C(=O)N[C@@H](CC(C)C)C(=O)N[C@@H](CCCNC(N)=O)C(=O)N[C@]1(C)CCCCCCC=CCCC[C@@](C)(C(=O)N[C@@H](Cc2ccc(O)cc2)C(=O)N[C@@H](Cc2ccc(O)cc2)C(=O)N[C@@H](C)C(N)=O)NC(=O)[C@H](CC(N)=O)NC(=O)[C@H](C(C)C)NC(=O)[C@H](C)NC(=O)[C@H](CC(=O)O)NC(=O)CNC(=O)[C@H]([C@@H](C)CC)NC1=O)[C@@H](C)CC
Molecule B2 displayed a Ki with MCL-1 [1] of 0.8 nM.

B3: SEQ ID NO: 1723 (peptide)
peptide: Ac-[Aib]WIAAALR[R8]IGDAFN[S5]YYA-NH2
modifications: staple 9-16
SMILES: CC[C@H](C)[C@H](NC(=O)[C@H](Cc1c[nH]c2ccccc12)NC(=O)C(C)(C)NC(C)=O)C(=O)N[C@@H](C)C(=O)N[C@@H](C)C(=O)N[C@@H](C)C(=O)N[C@@H](CC(C)C)C(=O)N[C@@H](CCCNC(=N)N)C(=O)N[C@]1(C)CCCCCCC=CCCC[C@@](C)(C(=O)N[C@@H](Cc2ccc(O)cc2)C(=O)N[C@@H](Cc2ccc(O)cc2)C(=O)N[C@@H](C)C(N)=O)NC(=O)[C@H](CC(N)=O)NC(=O)[C@H](Cc2ccccc2)NC(=O)[C@H](C)NC(=O)[C@H](CC(=O)O)NC(=O)CNC(=O)[C@H]([C@@H](C)CC)NC1=O
notes: also called Ac-AibWIAAALR$r8IGDAFN$YYA-NH2
As for B3, the results for the Ki with BCL-XL, in the assay with MCL-1 [2] and with BCL-2 were 20.3 nM, 4 nM and 56 nM, respectively.

B4: SEQ ID NO: 1703 (peptide)
peptide: Ac-I[αMeW]IAQALR[R8]IGDAFN[S5]YYA-NH2
modifications: staple 9-16
SMILES: CC[C@H](C)[C@H](NC(C)=O)C(=O)N[C@@](C)(Cc1c[nH]c2ccccc12)C(=O)N[C@H](C(=O)N[C@@H](C)C(=O)N[C@@H](CCC(N)=O)C(=O)N[C@@H](C)C(=O)N[C@@H](CC(C)C)C(=O)N[C@@H](CCCNC(=N)N)C(=O)N[C@]1(C)CCCCCCC=CCCC[C@@](C)(C(=O)N[C@@H](Cc2ccc(O)cc2)C(=O)N[C@@H](Cc2ccc(O)cc2)C(=O)N[C@@H](C)C(N)=O)NC(=O)[C@H](CC(N)=O)NC(=O)[C@H](Cc2ccccc2)NC(=O)[C@H](C)NC(=O)[C@H](CC(=O)O)NC(=O)CNC(=O)[C@H]([C@@H](C)CC)NC1=O)[C@@H](C)CC
notes: also called Ac-IAmWIAQALR$r8IGDAFN$YYA-NH2
Take B4: the Ki was 17.4 nM in the assay with BCL-XL, 9.9 nM in the assay with MCL-1 [2] and 70.6 nM in the assay with BCL-2.

B5: SEQ ID NO: 1655 (peptide)
peptide: IWIAQALXAIGDAFNAYYA
modifications: Ac- at N-terminus; -NH2 at C-terminus; $r8 at 9 and $ at 16 joined by all-carbon crosslinker; Cit (citrulline) at 8
In the case of B5, the Ki in the assay with BCL-XL worked out at 109 nM; in the assay with MCL-1 [2], 7.5 nM; with BCL-2 it was 212 nM.

B6: SEQ ID NO: 1714 (peptide)
peptide: Ac-IW[Ac6c]AQALR[R8]IGDAFN[S5]YYA-NH2
modifications: staple 9-16
SMILES: CC[C@H](C)[C@H](NC(C)=O)C(=O)N[C@@H](Cc1c[nH]c2ccccc12)C(=O)NC1(C(=O)N[C@@H](C)C(=O)N[C@@H](CCC(N)=O)C(=O)N[C@@H](C)C(=O)N[C@@H](CC(C)C)C(=O)N[C@@H](CCCNC(=N)N)C(=O)N[C@]2(C)CCCCCCC=CCCC[C@@](C)(C(=O)N[C@@H](Cc3ccc(O)cc3)C(=O)N[C@@H](Cc3ccc(O)cc3)C(=O)N[C@@H](C)C(N)=O)NC(=O)[C@H](CC(N)=O)NC(=O)[C@H](Cc3ccccc3)NC(=O)[C@H](C)NC(=O)[C@H](CC(=O)O)NC(=O)CNC(=O)[C@H]([C@@H](C)CC)NC2=O)CCCCC1
notes: also called Ac-IWAc6cAQALR$r8IGDAFN$YYA-NH2
Regarding B6, the Ki with BCL-XL amounted to 7.7 nM; with MCL-1 [2], 10.4 nM; in the assay with BCL-2, 25.7 nM.

B7: SEQ ID NO: 1697 (peptide)
peptide: Ac-IWIAQA[Bip]R[R8]IGDAFN[S5]YYA-NH2
modifications: staple 9-16
SMILES: CC[C@H](C)[C@H](NC(C)=O)C(=O)N[C@@H](Cc1c[nH]c2ccccc12)C(=O)N[C@H](C(=O)N[C@@H](C)C(=O)N[C@@H](CCC(N)=O)C(=O)N[C@@H](C)C(=O)N[C@@H](Cc1ccc(-c2ccccc2)cc1)C(=O)N[C@@H](CCCNC(=N)N)C(=O)N[C@]1(C)CCCCCCC=CCCC[C@@](C)(C(=O)N[C@@H](Cc2ccc(O)cc2)C(=O)N[C@@H](Cc2ccc(O)cc2)C(=O)N[C@@H](C)C(N)=O)NC(=O)[C@H](CC(N)=O)NC(=O)[C@H](Cc2ccccc2)NC(=O)[C@H](C)NC(=O)[C@H](CC(=O)O)NC(=O)CNC(=O)[C@H]([C@@H](C)CC)NC1=O)[C@@H](C)CC
notes: also called Ac-IWIAQABipR$r8IGDAFN$YYA-NH2
On to B7, for which the Ki in the assay with BCL-XL worked out at 8 nM; with MCL-1 [2], 83.7 nM; in the assay with BCL-2, 280 nM.

B8: SEQ ID NO: 1767 (peptide)
peptide: Ac-IWIAQA[αMeL]R[R8]IGDAFN[S5]YYA-NH2
modifications: staple 9-16
SMILES: CC[C@H](C)[C@H](NC(C)=O)C(=O)N[C@@H](Cc1c[nH]c2ccccc12)C(=O)N[C@H](C(=O)N[C@@H](C)C(=O)N[C@@H](CCC(N)=O)C(=O)N[C@@H](C)C(=O)N[C@@](C)(CC(C)C)C(=O)N[C@@H](CCCNC(=N)N)C(=O)N[C@]1(C)CCCCCCC=CCCC[C@@](C)(C(=O)N[C@@H](Cc2ccc(O)cc2)C(=O)N[C@@H](Cc2ccc(O)cc2)C(=O)N[C@@H](C)C(N)=O)NC(=O)[C@H](CC(N)=O)NC(=O)[C@H](Cc2ccccc2)NC(=O)[C@H](C)NC(=O)[C@H](CC(=O)O)NC(=O)CNC(=O)[C@H]([C@@H](C)CC)NC1=O)[C@@H](C)CC
notes: Row prints Ac-IWIAQAAmLR$r8IGDAFN$YYA-NH2
For B8, the Ki with MCL-1 [1] worked out at 86.6 nM.

B9: SEQ ID NO: 1715 (peptide)
peptide: Ac-IW[Ac5c]AQALR[R8]IGDAFN[S5]YYA-NH2
modifications: staple 9-16
SMILES: CC[C@H](C)[C@H](NC(C)=O)C(=O)N[C@@H](Cc1c[nH]c2ccccc12)C(=O)NC1(C(=O)N[C@@H](C)C(=O)N[C@@H](CCC(N)=O)C(=O)N[C@@H](C)C(=O)N[C@@H](CC(C)C)C(=O)N[C@@H](CCCNC(=N)N)C(=O)N[C@]2(C)CCCCCCC=CCCC[C@@](C)(C(=O)N[C@@H](Cc3ccc(O)cc3)C(=O)N[C@@H](Cc3ccc(O)cc3)C(=O)N[C@@H](C)C(N)=O)NC(=O)[C@H](CC(N)=O)NC(=O)[C@H](Cc3ccccc3)NC(=O)[C@H](C)NC(=O)[C@H](CC(=O)O)NC(=O)CNC(=O)[C@H]([C@@H](C)CC)NC2=O)CCCC1
notes: also called Ac-IWAc5cAQALR$r8IGDAFN$YYA-NH2
Take B9: the Ki with BCL-XL is 8.4 nM; in the assay with MCL-1 [2] it was 8.9 nM; in the assay with BCL-2 it was 68.2 nM.

B10: SEQ ID NO: 1704 (peptide)
peptide: Ac-I[Aib]IAQALR[R8]IGDAFN[S5]YYA-NH2
modifications: staple 9-16
SMILES: CC[C@H](C)[C@H](NC(C)=O)C(=O)NC(C)(C)C(=O)N[C@H](C(=O)N[C@@H](C)C(=O)N[C@@H](CCC(N)=O)C(=O)N[C@@H](C)C(=O)N[C@@H](CC(C)C)C(=O)N[C@@H](CCCNC(=N)N)C(=O)N[C@]1(C)CCCCCCC=CCCC[C@@](C)(C(=O)N[C@@H](Cc2ccc(O)cc2)C(=O)N[C@@H](Cc2ccc(O)cc2)C(=O)N[C@@H](C)C(N)=O)NC(=O)[C@H](CC(N)=O)NC(=O)[C@H](Cc2ccccc2)NC(=O)[C@H](C)NC(=O)[C@H](CC(=O)O)NC(=O)CNC(=O)[C@H]([C@@H](C)CC)NC1=O)[C@@H](C)CC
notes: also called Ac-IAibIAQALR$r8IGDAFN$YYA-NH2
On to B10, for which the Ki with BCL-XL amounted to 83.5 nM; with MCL-1 [2] it was 42.5 nM; with BCL-2 it was 97.9 nM.

B11: SEQ ID NO: 1708 (peptide)
peptide: Ac-IWIA[Aib]ALR[R8]IGDAFN[S5]YYA-NH2
modifications: staple 9-16
SMILES: CC[C@H](C)[C@H](NC(C)=O)C(=O)N[C@@H](Cc1c[nH]c2ccccc12)C(=O)N[C@H](C(=O)N[C@@H](C)C(=O)NC(C)(C)C(=O)N[C@@H](C)C(=O)N[C@@H](CC(C)C)C(=O)N[C@@H](CCCNC(=N)N)C(=O)N[C@]1(C)CCCCCCC=CCCC[C@@](C)(C(=O)N[C@@H](Cc2ccc(O)cc2)C(=O)N[C@@H](Cc2ccc(O)cc2)C(=O)N[C@@H](C)C(N)=O)NC(=O)[C@H](CC(N)=O)NC(=O)[C@H](Cc2ccccc2)NC(=O)[C@H](C)NC(=O)[C@H](CC(=O)O)NC(=O)CNC(=O)[C@H]([C@@H](C)CC)NC1=O)[C@@H](C)CC
notes: also called Ac-IWIAAibALR$r8IGDAFN$YYA-NH2
With B11, the Ki with BCL-XL stood at 59 nM; with MCL-1 [2], 5.5 nM; with BCL-2, 120 nM.

B12: SEQ ID NO: 1726 (peptide)
peptide: Ac-IRIAAALR[R8]IGDAFN[S5]YYA-NH2
modifications: staple 9-16
SMILES: CC[C@H](C)[C@H](NC(C)=O)C(=O)N[C@@H](CCCNC(=N)N)C(=O)N[C@H](C(=O)N[C@@H](C)C(=O)N[C@@H](C)C(=O)N[C@@H](C)C(=O)N[C@@H](CC(C)C)C(=O)N[C@@H](CCCNC(=N)N)C(=O)N[C@]1(C)CCCCCCC=CCCC[C@@](C)(C(=O)N[C@@H](Cc2ccc(O)cc2)C(=O)N[C@@H](Cc2ccc(O)cc2)C(=O)N[C@@H](C)C(N)=O)NC(=O)[C@H](CC(N)=O)NC(=O)[C@H](Cc2ccccc2)NC(=O)[C@H](C)NC(=O)[C@H](CC(=O)O)NC(=O)CNC(=O)[C@H]([C@@H](C)CC)NC1=O)[C@@H](C)CC
Regarding B12, the Ki in the assay with BCL-XL was 20.5 nM; in the assay with MCL-1 [2], 9.8 nM; with BCL-2, 39.1 nM.
